Positions of bridges follow the written chain, without caps; N, C: chain ends. Non-standard residues stand in square brackets, D forms with d. Groups on a side chain read outwards from the residue. Primed or numbered codes have the meaning given here. No end group written: not given here. *: point of attachment. DOTA = O=C(O)CN1CCN(CC(=O)O)CCN(CC(=O)*)CCN(CC(=O)O)CC1; Biotin = O=C1N[C@H]2[C@H](CS[C@H]2CCCCC(=O)*)N1; Butanoyl(4-(4-I-phenyl)) = O=C(CCCc1ccc(I)cc1)*; Butanoyl(4-(4-MePh)) = Cc1ccc(CCCC(=O)*)cc1; Lys(N3) = [N-]=[N+]=NCCCC[C@H](N)C(=O)O; FB = fluorobenzaldehyde oxime; PEG10′ = PEG spacer, 10 units; PEG3′ = PEG spacer, 3 units; PEG7′ = PEG linker, 7 units; AO = aminooxy group, NO*; Pra = C#CC[C@H](N)C(=O)O
What was measured:
[1] = biological target: CD-1 mouse plasma proteins; assay: plasma protein binding, equilibrium dialysis, LC-MS/MS; control
[2] = biological target: human plasma proteins; assay: as above
[3] = biological target: His-tagged FOLR1 human recombinant protein (11241-H08H, SinoBiological) (human) (UniProt P15328); assay: ELISA
[4] = biological target: CD-1 mouse plasma proteins; assay: plasma protein binding, equilibrium dialysis, LC-MS/MS
[5] = biological target: human plasma proteins; assay: as above
[6] = biological target: His-tagged FOLR1 human recombinant protein (11241-H08H, SinoBiological) (human) (UniProt P15328); assay: ELISA; remark: listed apart in the source
[7] = biological target: mouse recombinant FOLR1 (rMuFOLR1) (mouse, UniProt P35846); assay: ELISA
[8] = biological target: His-tagged FOLR1 human recombinant protein (11241-H08H, SinoBiological) (human) (UniProt P15328); assay: ELISA, linker screen
[9] = biological target: FOLR1 on OVCAR3 cells (human ovarian adenocarcinoma, FOLR1 (+) cell line) (human) (UniProt P15328); assay: flow cytometry on OVCAR3 cells, no folate
[10] = biological target: His-tagged FOLR1 human recombinant protein (11241-H08H, SinoBiological) (human) (UniProt P15328); assay: ELISA, against folate as reference
[11] = biological target: FOLR1 on OVCAR3 cells (human ovarian adenocarcinoma, FOLR1 (+) cell line) (human) (UniProt P15328); assay: flow cytometry on OVCAR3 cells, with 0.1 µg/mL free folate as competitor
[12] = biological target: FOLR1 on OVCAR3 cells (human ovarian adenocarcinoma, FOLR1 (+) cell line) (human) (UniProt P15328)
[13] = biological target: CD-1 mouse plasma proteins; assay: plasma protein binding; value marked (FB)
[14] = biological target: human plasma proteins; assay: plasma protein binding; value marked (FB)

Row | Molecule | EC50 [3] [nM] | Plasma % Bound [4] [%] | Plasma % Bound [5] [%] | other results
1 | Octreotide Acetate (peptide) | – | – | – | Plasma % Bound [1]: 62.4%; Plasma % Bound [2]: 59.4%
2 | K[dD][dE][dR][dY][dT] (not fully specified (residue 1, C-terminus, bridges); also: macrocycle (click Pra/Az4 or amide variant), ends not placed) [Lys(PEG3-Folate)-deryt heterobiligand] | 0.16 | – | – | –
3 | Fol-[dH][dS][dH][dT][dA]K(Butanoyl(4-(4-MePh)))GFK([PEG3′-DOTA]) (not fully specified (residue 5, bridges)) [Compound #3302, Fol-hshta-Lys(4-MPBA)-Gly-Phe-Lys(PEG3-DOTA)] | – | 96.5 | 94.9 | –
4 | [dK][dY][dE][dE][dT][Lys(N3)] (triazole N-C; not fully specified (N-terminus); also: folate joined through PEG linker and Tz (triazole) attachment) [folate-kyeet Tz heterobiligand] | 0.149 | – | – | –
5 | [Pra][dH][dS][dH][dT][dA][Lys(N3)] (triazole N-C; also: further groups not given here) [hshta (SEQ ID NO:6) macrocyclic peptide ligand (PCC)] | 3920 | – | – | EC50 [6]: 3400 nM; EC50 [7]: 2100 nM
6 | Fol-[dH][dS][dH][dT][dA][PEG10′][PEG10′]K(Biotin) (not fully specified (bridges); printed as folate-hshta) [folate-hshta (SEQ ID NO:6) NTerm heterobiligand, Folate-hshta-PEG10-PEG10-K(Biotin)] | 0.065 | – | – | EC50 [8]: 0.18 nM; percentage of OVCAR3 cells binding [9]: 76.6%; fold greater affinity than folate itself [10]: 30 fold; percentage of OVCAR3 cells binding [11]: 57%; EC50 [6]: 0.35 nM; EC50 [7]: 0.33 nM
7 | {Fol-PEG7′}-[dH][dS][dH][dT][dA] (also: triazole macrocycle (Pra/Az4 click), ends not placed) [Folate-PEG7-hshta heterobiligand] | – | – | – | EC50 [8]: 1 nM
8 | Fol-[dH][dS][dH][dT][dA]K(Butanoyl(4-(4-MePh)))[PEG10′][PEG10′]K(Biotin) (not fully specified (some residues, bridges); printed as Folate-hshta-MPBA) [Folate-hshta-MPBA: folate-hshta with the tag Lys(4-MPBA)-PEG10-PEG10-Lys(Biotin)] | 0.11 | – | – | –
9 | [dD][dE][dR][dY][dT][Lys(N3)] (triazole N-C; not fully specified (N-terminus); printed as Pra(Az4-PEG3-folate)-deryt; also: N-terminal Pra joined by Tz (triazole) linker to Az4-PEG3-folate) [Pra(Az4-PEG3-folate)-deryt heterobiligand] | 0.27 | – | – | –
10 | Fol-[dH][dS][dH][dT][dA]K(DOTA)[PEG10′][PEG10′]K(Biotin) (not fully specified (some residues, bridges); printed as Folate-hshta-DOTA) [Folate-hshta-DOTA: folate-hshta with the tag Lys(DOTA)-PEG10-PEG10-Lys(Biotin)] | 0.098 | – | – | –
11 | [dH][dS][dH][dT][dA][Lys(N3)] (triazole N-C; not fully specified (N-terminus); also: folate joined through PEG linker and Tz (triazole) attachment) [folate-hshta Tz heterobiligand] | 0.107 | – | – | –
12 | Fol-[dH][dS][dH][dT][dA] (not fully specified (C-terminus, bridges); also: DyLight 650 label, site not given here) [DyLight650-labeled folate-hshta (SEQ ID NO:6) Nterm heterobiligand] | – | – | – | percentage of positively stained cells after acid wash (flow cytometry) [12]: 54.2%
13 | [Pra][dK][dY][dE][dE][dT][Lys(N3)] (triazole N-C) [kyeet (SEQ ID NO:9) macrocyclic peptide ligand (PCC)] | > 10000 | – | – | –
14 | Fol-[dH][dS][dH][dT][dA]K(Butanoyl(4-(4-I-phenyl)))MVK(DOTA) (not fully specified (residue 5, bridges)) [Compound #1306, folate-hshta-Lys(IPBA)-M-V-Lys(DOTA) (SEQ ID NO:6)] | – | 97.1 | 97.3 | –
15 | Fol-[dH][dS][dH][dT][dA]K(DOTA) (not fully specified (residue 5, bridges); printed as folate-hshta-PEG3-Lys(DOTA)) [Compound #1189, Fol-hshta-PEG3-Lys(DOTA)] | – | 29.5 | 46 | –
16 | Fol-[dH][dS][dH][dT][dA]K(Butanoyl(4-(4-I-phenyl)))GFK(DOTA) (not fully specified (residue 5, bridges)) [Compound #1307, folate-hshta-Lys(IPBA)-Gly-Phe-Lys(DOTA) (SEQ ID NO:6)] | – | 99.6 | 99.5 | –
17 | Fol-[dH][dS][dH][dT][dA]K(Butanoyl(4-(4-MePh)))K(DOTA) (not fully specified (residue 5, bridges); printed as folate-hshta-PEG3-Lys(MPBA)-Lys(DOTA)) [Compound #2809, folate-hshta-PEG3-Lys(MPBA)-Lys(DOTA) (SEQ ID NO:6)] | – | 92.1 | 83.3 | –
18 | Fol-P[dH][dS][dH][dT][dA] (not fully specified (residue 1, C-terminus, bridges)) [Folate-Pro-hshta heterobiligand] | – | – | – | EC50 [8]: 0.9 nM
19 | [Pra][dD][dE][dR][dY][dT][Lys(N3)] (triazole N-C; also: conjugated to folate, attachment not said) [folate-deryt (SEQ ID NO:20) heterobiligand (construct not specified)] | – | – | – | EC50 [8]: 0.28 nM
20 | Fol-[dH][dS][dH][dT][dA]K(Butanoyl(4-(4-MePh)))GFK(DOTA) (not fully specified (residue 5, bridges)) [Compound #6305, folate-hshta-Lys(MPBA)-Gly-Phe-Lys(DOTA) (SEQ ID NO:6)] | – | 96.3 | 98.3 | –
21 | [dH][dS][dH][dT][dA]GFK(DOTA) (not fully specified (residue 5, N-terminus, bridges); printed as folate-hshta-Gly-Phe-Lys(DOTA)) [Compound #7327, folate-hshta-Gly-Phe-Lys(DOTA) (SEQ ID NO:6)] | – | 40.9 | 40.3 | –
22 | Fol-[dH][dS][dH][dT][dA]GFK(DOTA) (not fully specified (residue 5, bridges)) [Compound #6307, Fol-hshta-PEG3-Gly-Phe-Lys(DOTA)] | – | 40.6 | 41.3 | –
23 | Fol-[dH][dS][dH][dT][dA]K(FB) (not fully specified (residue 5, bridges)) [Compound #2, Fol-hshta-PEG3-Lys(FB)] | – | 20.2 | 43 | –
24 | [Pra][dD][dE][dR][dY][dT][Lys(N3)] (triazole N-C) [deryt (SEQ ID NO:20) macrocyclic peptide ligand (PCC)] | 10000 | – | – | –
25 | Fol-[dH][dS][dH][dT][dA]GFK(AO) (not fully specified (residue 5, bridges); printed as Fol-hshta-Gly-Phe-Lys(AO)) [Compound #3303, Fol-hshta-Gly-Phe-Lys(AO)] | – | – | – | Plasma % Bound [13]: 75.5%; Plasma % Bound [14]: 81%
26 | Fol-G[dH][dS][dH][dT][dA] (not fully specified (residue 1, C-terminus, bridges)) [Folate-Gly-hshta heterobiligand] | – | – | – | EC50 [8]: 0.9 nM

From patent US20240180856A1, “COMPOSITIONS, […] SYSTEMS, AND METHODS USEFUL IN TUMOR […]” (published 2024)
